These results are taken from PMC7641749 (Nucleic Acids Research, 2020).

The term Kd denotes the concentration at which binding is half-saturated. Read a low Kd as tighter binding. The term stoichiometry N denotes the number of molecules, sites or subunits per partner or assembly.

This assay deals with human ERH (residues 1–104), His6-tagged (human, UniProt P84090 1-104). The assay can be described thus: ITC.

Values joined by “and” are separate entries in the source; they are usually repeats but may differ in a detail not shown here. Equal values may be shown once.

Chain of human ERH (residues 1–104), His6-tagged (P84090 whole entry, the tested form may be a part): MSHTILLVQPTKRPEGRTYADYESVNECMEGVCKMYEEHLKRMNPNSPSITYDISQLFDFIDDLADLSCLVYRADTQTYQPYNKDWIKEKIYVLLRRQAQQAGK

For PRTARHAPAVRKFSPDLKLLKDVKISVSFTE [His6-SUMO tagged DGCR8^96–126], the Kd was ~19.6 µM and ~19.7 µM; the “stoichiometry N” value was found to be 0.965.
